Here are results for one molecule from patent US20160289698A1 (TRUSTEES OF DARTMOUTH COLLEGE, published 2016).

For one test, the target named is T1, KISS ME DEADLY 3 (KMD3) (Arabidopsis, UniProt O80582 1-409).
T1 construct: Full-length protein; LexA fusion in yeast two-hybrid, YFP^N or YFP^C fusion in BiFC; also called At2g44130
T1 sequence (looked up): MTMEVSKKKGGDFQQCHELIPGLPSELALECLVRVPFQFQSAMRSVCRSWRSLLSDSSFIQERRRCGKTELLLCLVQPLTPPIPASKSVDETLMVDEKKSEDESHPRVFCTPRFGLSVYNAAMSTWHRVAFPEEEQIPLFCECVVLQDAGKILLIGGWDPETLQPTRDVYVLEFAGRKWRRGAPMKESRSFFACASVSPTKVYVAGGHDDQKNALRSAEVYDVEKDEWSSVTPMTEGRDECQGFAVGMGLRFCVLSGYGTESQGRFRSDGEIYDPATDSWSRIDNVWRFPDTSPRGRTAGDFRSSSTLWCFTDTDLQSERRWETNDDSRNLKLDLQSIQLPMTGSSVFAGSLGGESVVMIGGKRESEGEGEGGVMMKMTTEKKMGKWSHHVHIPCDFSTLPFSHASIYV
Nature of the test: yeast two-hybrid (LexA-KMD bait, B42-ARR prey, X-gal). The text has this:
(§1) The DUPLEX-A™ system (OriGene Technologies) was used for yeast two-hybrid analysis of interactions. KMD cDNAs were cloned into the pGilda bait vector, which produces an in-frame fusion with the LexA DNA-binding domain. Type-B ARR coding sequences were cloned into the pJG4-5 prey vector, which produces a B42 activation domain. The yeast strain EGY48 (MATa, trp1, his3, ura3, leu2::6 LexAop-LEU2) that contains the lacZ reporter plasmid pSH18-34 was transformed with the appropriate “bait” and “prey” plasmids. Interactions were tested on 5-bromo-4-chloro-3-indolyl-p-D-galactopyranoside (X-gal) medium (Ryu, et al. (2005) Cell 120(3): 395-406).
(§2) The KMD proteins also interacted with ARR20 (type-B ARR subfamily-3), but not with ARR19 (subfamily-2) and ARR21 (subfamily-3). […] All four KMD proteins interacted with both ARR1 and ARR12 in a BiFC assay. Strong fluorescence was detected in the nuclei of cells, consistent with the subcellular localization of the type-B ARRs (Hwang & Sheen J (2001) Nature 413(6854):383-389; Mason, et al. (2004) Plant Physiol. 135(2):927-937).

The next test has as its target T2, KISS ME DEADLY 4 (KMD4) (Arabidopsis, UniProt Q9M1Y1 1-418).
T2 construct: Full-length protein; LexA fusion in yeast two-hybrid, YFP^N or YFP^C fusion in BiFC; also called At3g59940
T2 sequence (looked up): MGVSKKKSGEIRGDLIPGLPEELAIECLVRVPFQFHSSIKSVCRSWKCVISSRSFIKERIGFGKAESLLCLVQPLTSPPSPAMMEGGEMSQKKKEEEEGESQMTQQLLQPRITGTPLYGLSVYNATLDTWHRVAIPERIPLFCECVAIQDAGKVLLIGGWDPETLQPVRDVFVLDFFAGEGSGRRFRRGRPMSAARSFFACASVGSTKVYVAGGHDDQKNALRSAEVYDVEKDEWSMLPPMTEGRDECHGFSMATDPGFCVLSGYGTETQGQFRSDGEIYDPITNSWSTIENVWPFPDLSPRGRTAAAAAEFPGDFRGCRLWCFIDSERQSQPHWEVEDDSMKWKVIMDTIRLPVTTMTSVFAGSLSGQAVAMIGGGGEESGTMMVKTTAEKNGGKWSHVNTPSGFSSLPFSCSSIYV
The test is described as above.
Text: as §1, §2

B1: ARR19 (subfamily-2) (other, Arabidopsis, UniProt Q9M9B9 1-407, looked up)
chain: MLVGKISGYEDNTRSLERETSEITSLLSQFPGNTNVLVVDTNFTTLLNMKQIMKQYAYQVSIETDAEKALAFLTSCKHEINIVIWDFHMPGIDGLQALKSITSKLDLPVVIMSDDNQTESVMKATFYGACDYVVKPVKEEVMANIWQHIVRKRLIFKPDVAPPKPRMTWSEVFQPVQSHLVPTDGLDRDHFDSITINGGNGIQNMEKKQGKKPRKPRMTWTEELHQKFLEAIEIIGGIEKANPKVLVECLQEMRIEGITRSNVASHLQKHRINLEENQIPQQTQGNGWATAYGTLAPSLQGSDNVNTTIPSYLMNGPATLNQIQQNQYQNGFLTMNNNQIITNPPPPLPYLDHHHQQQHQSSPQFNYLMNNEELLQASGLSATDLELTYPSLPYDPQEYLINGYNYN
For the molecule B1, the binding result in the test with KISS ME DEADLY 3 (KMD3) and with KISS ME DEADLY 4 (KMD4) was “no binding” in each case.
